In publication PMC3554631, “Structural Basis of a Histone H3 Lysine 4 Demethylase Required for Stem Elongation in Rice” (PLoS Genetics, 2013):

Tests used:
Type in all cases: cell-based
Details in all cases: mutant expressed transiently in tobacco cells, immunostaining of nuclei, at least 30 nuclei per transfection
H3K4me3 = test: H3K4 demethylation assay in tobacco cells of JMJ703 substitution mutants, H3K4me3
Experimental: (§1) The cDNA fragment of the J3NCZ region was amplified using primers FAJ3NCZ-F and FAJ3NCZ-R and then cloned into pFA121 vector modified from pBI121 (GenBank: AF485783.1), in which GUS was replaced by 2×FLAG∶2×HA tag. The pFA121-J3NCZ plasmid was transferred into Agrobacterium tumefaciens strain EHA105 cells for tobacco infection with the help of Agrobacterium cells harboring P19 plasmids. For in vivo histone demethylation assay, tobacco infection and nuclei isolation were performed as previously described. The immunostaining protocol was modified from http://sites.bio.indiana.edu/~pikaardlab. Briefly, the nucleus solution was placed on a poly-lysine coated slide, air dried, and then refixed with 4% formaldehyde in KPBS (1.28 M NaCl, 20 mM KCl, 80 mM Na2HPO4, 20 mM KH2PO4, pH7.2) containing 1% Triton X-100 for 20 min. After 3 washes with KPBS-1% Triton, slides were blocked with blocking solution (1% BSA in KPBS-1% Triton) and incubated at 37°C for 30 min. The blocking solution was washed off with KPBS-1% Triton and the slides were incubated with both anti-HA and histone méthylation specific antibodies diluted in blocking solution to 1∶300 at 4°C overnight. After washing with KPBS, slides were blocked and incubated with fluorescent-labeled antibodies at 37°C for 2 h. After washing with KPBS thrice, nuclei were stained with 5 µg/mL 4,6-diamidino-2-phenylindole (DAPI), coated with a drop of VECTASHIELD Mounting Medium (H-1000, Vector Laboratories), and then covered with a coverslip followed by confocal microscope (Leica) detection. In vitro histone demethylation assays were performed as previously described. FA-J3NCZ was purified after overexpression with Anti-FLAG M2 magnetic beads according the manufacturer's instruction (Sigma).
(§2) Supplementary file pgen.1003239.s006.tif: Figure S6 Demethylation assays for JMJ703 substitution mutants that have been produced based on the structural data. The mutant names are labeled at the top left corner of each panel. Image panels from left to right are staining by DAPI, anti-HA and anti-methylated histones, respectively. Bar = 10 µm. At least 30 nuclei that expressed JMJ703 per transfection were observed and imaged. (TIF) Click here for additional data file.

H3K4me2 = test: H3K4 demethylation assay in tobacco cells of JMJ703 substitution mutants, H3K4me2
Experimental: as §1, §2

H3K4me1 = test: H3K4 demethylation assay in tobacco cells of JMJ703 substitution mutants, H3K4me1
Experimental: as §1, §2

Molecule	H3K4me3 demethylation activity (H3K4me3)	H3K4me2 demethylation activity (H3K4me2)	H3K4me1 demethylation activity (H3K4me1)
A494S: JMJ703 substitution mutant, methylation state-specificity residue (protein, UniProt Q53WJ1 1-1238, looked up, variant A494S) Lysine-specific demethylase …: MMGVTTTLNEDTEPSIPPGFGPFATLPLWGIHNDAKPAVTHSTPVQALQSIRKDSEECQPSAAVSRSDTPCSTSGTQTCRKSLRNRPPIDYSRFEHISDEDSDVEIVEKDVSSTRRRQQLPKGVLRGCAECSDCQKVIAKWNPAGARRPVLDEAPVFYPTEEEFEDTLKYIESIRPMAEPYGICRIVPPSSWKPPCLLKDKSIWEGSKFSTRVQKVDKLQNRKSSKKGRRGGMMKRRKLAESEENSATAHTQTGMQQSPERFGFEPGPEFTLQTFQKYADDFSKQYFRKDTSMDSVPSVEDIEGEYWRIVEVPTEEIEVIYGADLETGTFGSGFPKLSPETKSDAEDKYAQSGWNLNNLPRLQGSVLSFEGGDISGVLVPWVYVGMCFSSFCWHVEDHHLYSLNYMHWGAPKLWYGVPGKDAVNLESAMRKHLPELFEEQPDLLHNLVTQFSPSLLKSEGVHVYRCVQHEGEFVLTFPRAYHAGFNCGFNCAESVNVAPIDWLPIGHNAVELYREQARKITISHDKLLLGAAREAIRAQWDILFLKRNTADNMRWKSICGADSTIFKALKARIETELVQRKTLGVPAQSRKMDAEFDSIDRECALCYYDLHLSASGCPCCPEKYACLVHAKQLCSCDWDKRFFLFRYDVNELNILADALGGKLSAIHRWGVSDLGLSLSSCVKREKVQDSKTVRRLTDGPRRSYMSQASAVSLVSSSTSNEQKDEGNKIMKIASPQTNNVCPSVEQRKSENISPLKEPCVRNELSCTTNSDSNGLQYNGGLGGHKGSAPGLPVSSSPSFSSNVATRPISTSSVSMKIVQGLVASKSCIQASSRTGDSRSLLGEHHNRSPAMIHDGTNMKSSLESSNNSCRLIASDYNATPCHSSKDQVLVTPGTNASVVTLKDSSQVHSASSQQFVRTGPWTQSASHEASSPSTSALKPSLDPPAMKNLYGGFTQGSAHPGPPSFSNQQPNDGRLQRTSESLPGVEARARGHPTVTAQPALEIHSRNGGAQKGPRIANVVHRFKCSVEPLEIGVVLSGRLWSSSQAIFPKGFRSRVKYFSIVDPIQMAYYISEILDAGMQGPLFMVKLENCPGEVFINLSPTKCWNMVRERLNMEIRRQLNMGKSNLPTLQPPGSVDGLEMFGLLSPPIVQAIWARDRDHICTEYWRSRPHVLIEDPNNRHMLSQGPPLLALRGLIQRANRDELQVLRSLMTNSNNLDDSSRQQAAHIIEEEIAKQLC	yes	no	no
E396A: JMJ703 substitution mutant, methyl group-binding residue (protein, UniProt Q53WJ1 1-1238, looked up, variant E396A) Lysine-specific demethylase …: MMGVTTTLNEDTEPSIPPGFGPFATLPLWGIHNDAKPAVTHSTPVQALQSIRKDSEECQPSAAVSRSDTPCSTSGTQTCRKSLRNRPPIDYSRFEHISDEDSDVEIVEKDVSSTRRRQQLPKGVLRGCAECSDCQKVIAKWNPAGARRPVLDEAPVFYPTEEEFEDTLKYIESIRPMAEPYGICRIVPPSSWKPPCLLKDKSIWEGSKFSTRVQKVDKLQNRKSSKKGRRGGMMKRRKLAESEENSATAHTQTGMQQSPERFGFEPGPEFTLQTFQKYADDFSKQYFRKDTSMDSVPSVEDIEGEYWRIVEVPTEEIEVIYGADLETGTFGSGFPKLSPETKSDAEDKYAQSGWNLNNLPRLQGSVLSFEGGDISGVLVPWVYVGMCFSSFCWHVADHHLYSLNYMHWGAPKLWYGVPGKDAVNLESAMRKHLPELFEEQPDLLHNLVTQFSPSLLKSEGVHVYRCVQHEGEFVLTFPRAYHAGFNCGFNCAEAVNVAPIDWLPIGHNAVELYREQARKITISHDKLLLGAAREAIRAQWDILFLKRNTADNMRWKSICGADSTIFKALKARIETELVQRKTLGVPAQSRKMDAEFDSIDRECALCYYDLHLSASGCPCCPEKYACLVHAKQLCSCDWDKRFFLFRYDVNELNILADALGGKLSAIHRWGVSDLGLSLSSCVKREKVQDSKTVRRLTDGPRRSYMSQASAVSLVSSSTSNEQKDEGNKIMKIASPQTNNVCPSVEQRKSENISPLKEPCVRNELSCTTNSDSNGLQYNGGLGGHKGSAPGLPVSSSPSFSSNVATRPISTSSVSMKIVQGLVASKSCIQASSRTGDSRSLLGEHHNRSPAMIHDGTNMKSSLESSNNSCRLIASDYNATPCHSSKDQVLVTPGTNASVVTLKDSSQVHSASSQQFVRTGPWTQSASHEASSPSTSALKPSLDPPAMKNLYGGFTQGSAHPGPPSFSNQQPNDGRLQRTSESLPGVEARARGHPTVTAQPALEIHSRNGGAQKGPRIANVVHRFKCSVEPLEIGVVLSGRLWSSSQAIFPKGFRSRVKYFSIVDPIQMAYYISEILDAGMQGPLFMVKLENCPGEVFINLSPTKCWNMVRERLNMEIRRQLNMGKSNLPTLQPPGSVDGLEMFGLLSPPIVQAIWARDRDHICTEYWRSRPHVLIEDPNNRHMLSQGPPLLALRGLIQRANRDELQVLRSLMTNSNNLDDSSRQQAAHIIEEEIAKQLC	no	no	no
Y383A: JMJ703 substitution mutant, methyl group-binding residue (protein, UniProt Q53WJ1 1-1238, looked up, variant Y383A) Lysine-specific demethylase …: MMGVTTTLNEDTEPSIPPGFGPFATLPLWGIHNDAKPAVTHSTPVQALQSIRKDSEECQPSAAVSRSDTPCSTSGTQTCRKSLRNRPPIDYSRFEHISDEDSDVEIVEKDVSSTRRRQQLPKGVLRGCAECSDCQKVIAKWNPAGARRPVLDEAPVFYPTEEEFEDTLKYIESIRPMAEPYGICRIVPPSSWKPPCLLKDKSIWEGSKFSTRVQKVDKLQNRKSSKKGRRGGMMKRRKLAESEENSATAHTQTGMQQSPERFGFEPGPEFTLQTFQKYADDFSKQYFRKDTSMDSVPSVEDIEGEYWRIVEVPTEEIEVIYGADLETGTFGSGFPKLSPETKSDAEDKYAQSGWNLNNLPRLQGSVLSFEGGDISGVLVPWVAVGMCFSSFCWHVEDHHLYSLNYMHWGAPKLWYGVPGKDAVNLESAMRKHLPELFEEQPDLLHNLVTQFSPSLLKSEGVHVYRCVQHEGEFVLTFPRAYHAGFNCGFNCAEAVNVAPIDWLPIGHNAVELYREQARKITISHDKLLLGAAREAIRAQWDILFLKRNTADNMRWKSICGADSTIFKALKARIETELVQRKTLGVPAQSRKMDAEFDSIDRECALCYYDLHLSASGCPCCPEKYACLVHAKQLCSCDWDKRFFLFRYDVNELNILADALGGKLSAIHRWGVSDLGLSLSSCVKREKVQDSKTVRRLTDGPRRSYMSQASAVSLVSSSTSNEQKDEGNKIMKIASPQTNNVCPSVEQRKSENISPLKEPCVRNELSCTTNSDSNGLQYNGGLGGHKGSAPGLPVSSSPSFSSNVATRPISTSSVSMKIVQGLVASKSCIQASSRTGDSRSLLGEHHNRSPAMIHDGTNMKSSLESSNNSCRLIASDYNATPCHSSKDQVLVTPGTNASVVTLKDSSQVHSASSQQFVRTGPWTQSASHEASSPSTSALKPSLDPPAMKNLYGGFTQGSAHPGPPSFSNQQPNDGRLQRTSESLPGVEARARGHPTVTAQPALEIHSRNGGAQKGPRIANVVHRFKCSVEPLEIGVVLSGRLWSSSQAIFPKGFRSRVKYFSIVDPIQMAYYISEILDAGMQGPLFMVKLENCPGEVFINLSPTKCWNMVRERLNMEIRRQLNMGKSNLPTLQPPGSVDGLEMFGLLSPPIVQAIWARDRDHICTEYWRSRPHVLIEDPNNRHMLSQGPPLLALRGLIQRANRDELQVLRSLMTNSNNLDDSSRQQAAHIIEEEIAKQLC	no	yes	no
G376A: JMJ703 substitution mutant, methyl group-binding residue (protein, UniProt Q53WJ1 1-1238, looked up, variant G376A) Lysine-specific demethylase …: MMGVTTTLNEDTEPSIPPGFGPFATLPLWGIHNDAKPAVTHSTPVQALQSIRKDSEECQPSAAVSRSDTPCSTSGTQTCRKSLRNRPPIDYSRFEHISDEDSDVEIVEKDVSSTRRRQQLPKGVLRGCAECSDCQKVIAKWNPAGARRPVLDEAPVFYPTEEEFEDTLKYIESIRPMAEPYGICRIVPPSSWKPPCLLKDKSIWEGSKFSTRVQKVDKLQNRKSSKKGRRGGMMKRRKLAESEENSATAHTQTGMQQSPERFGFEPGPEFTLQTFQKYADDFSKQYFRKDTSMDSVPSVEDIEGEYWRIVEVPTEEIEVIYGADLETGTFGSGFPKLSPETKSDAEDKYAQSGWNLNNLPRLQGSVLSFEGGDISAVLVPWVYVGMCFSSFCWHVEDHHLYSLNYMHWGAPKLWYGVPGKDAVNLESAMRKHLPELFEEQPDLLHNLVTQFSPSLLKSEGVHVYRCVQHEGEFVLTFPRAYHAGFNCGFNCAEAVNVAPIDWLPIGHNAVELYREQARKITISHDKLLLGAAREAIRAQWDILFLKRNTADNMRWKSICGADSTIFKALKARIETELVQRKTLGVPAQSRKMDAEFDSIDRECALCYYDLHLSASGCPCCPEKYACLVHAKQLCSCDWDKRFFLFRYDVNELNILADALGGKLSAIHRWGVSDLGLSLSSCVKREKVQDSKTVRRLTDGPRRSYMSQASAVSLVSSSTSNEQKDEGNKIMKIASPQTNNVCPSVEQRKSENISPLKEPCVRNELSCTTNSDSNGLQYNGGLGGHKGSAPGLPVSSSPSFSSNVATRPISTSSVSMKIVQGLVASKSCIQASSRTGDSRSLLGEHHNRSPAMIHDGTNMKSSLESSNNSCRLIASDYNATPCHSSKDQVLVTPGTNASVVTLKDSSQVHSASSQQFVRTGPWTQSASHEASSPSTSALKPSLDPPAMKNLYGGFTQGSAHPGPPSFSNQQPNDGRLQRTSESLPGVEARARGHPTVTAQPALEIHSRNGGAQKGPRIANVVHRFKCSVEPLEIGVVLSGRLWSSSQAIFPKGFRSRVKYFSIVDPIQMAYYISEILDAGMQGPLFMVKLENCPGEVFINLSPTKCWNMVRERLNMEIRRQLNMGKSNLPTLQPPGSVDGLEMFGLLSPPIVQAIWARDRDHICTEYWRSRPHVLIEDPNNRHMLSQGPPLLALRGLIQRANRDELQVLRSLMTNSNNLDDSSRQQAAHIIEEEIAKQLC	no	no	no
